# Test: soluble on expression in E. coli; label from the status in PepcDB or PDB records
row,Sequence,soluble on expression in E. coli
1,MKTWLPTSTAGSLPKPSWLAQPETLWSPWKLSSEELLAGKRDALRLSLDDQLRAGIDIVSDGEQTRQHFVTTFIEHLSGVDFAKREIVKIRNRYEASVPTVVGAVERQKPVFVEDARYLRQLTSQPIKWALPGPMTMIDTLYDNHYKSREKLAWEFAKILNQEAKELEAAGVDIIQFDEPAFNVFFDEVNDWGIAALERATEGLKCETAVHICYGYGIKANTDWKKTLGSEWRQYEEAFPQLQKSSLDIISLECHNSRVPMDLLELIRGKKVMVGAIDVASHAIETPEEVAGTLRKALAFVDADKLYPSTNCGMAPLPRHVATGKLHALSAGAEIIRRELAAK,not soluble
2,MKVAIVHNSEEKSKQVTKQLTTLLEQNQIQIDNRQPELVISVGGDGTLLSAFHRFNHLLNEVSFLGVHTGHLGFYTDWRDYELKELVESLCIHREKSTSYPLLDVRIRFRDGKPDKHFLALNESTIKRGNRTMVGDVFIKDELFERFRGDGLSISTPTGSTAYNKSIGGAVLHPSINAFQLTEIASLNNRVFRTLGSPIVIAHTEWLEIKLQESDDYFVTVDQLDIYQENIASVCYRIADERIHFASYRHMHFWHRVKDAFIGED,not soluble
3,MKVALGGTFEPLHEGHKKLIDVAIKLGGRDITIGVTSDRMARARIRSVLPFAIRAENVKRYVMRKYGFEPEIVKITNPYGKTLDVDFEYLVVSPETYEMALKINQKREELGKRKITIVKVDWMMAEDGKPISSTRIKRGEIDRYGGII,soluble
4,MKVGYLGPAATFTHLAVSSCFQNGAEHVAYRTIPECIDAAVAGEVDFAFVPLENALEGSVNLTIDYLIHEQPLPIVGEMTLPIHQHLLVHPSRENAWKELDKIYSHSHAIAQCHKFLHRHFPSVPYEYANSTGAAAKFVSDHPELNIGVIANDMAASTYELKIVKRDIQDYRDNHTRFVILSPDENISFEVNSKLSSRPKTTLMVMLPQDDQSGALHRVLSAFSWRNLNLSKIESRPTKTGLGHYFFIIDIEKAFDDVLIPGAMQELEALGCKVRLLGAYQSYQLMAGDPLEHHHHHH,not soluble
5,MKVIIIGGETTAYYLARSMLSRKYGVVIINKDRELCEEFAKKLKATIIHGDGSHKEILRDAEVSKNDVVVILTPRDEVNLFIAQLVMKDFGVKRVVSLVNDPGNMEIFKKMGITTVLNLTTLITNTVEALIFPDEFSSIIPLEQGIEFLSVNVEEDSPVVGKKLKDLPLPRDSIIAAIVRGGVLVVPRGDTEILSGDKLYVIVSAEAKETVEETLLGR,soluble
6,MKVIVVGCTHAGTFAVKQTIADHPDADVTAYEMNDNISFLSCGIALYLGKEIKNNDPRGLFYSSPEELSNLGANVQMRHQVTNVDPETKTIKVKDLITNEEKTEAYDKLIMTTGSKPTVPPIPGIDSSRVYLCKNYNDAKKLFEEAPKAKTITIIGSGYIGAELAEAYSNQNYNVNLIDGHERVLYKYFDKEFTDILAKDYEAHGVNLVLGSKVAAFEEVDDEIITKTLDGKEIKSDIAILCIGFRPNTELLKGKVAMLDNGAIITDEYMHSSNRDIFAAGDSAAVHYNPTNSNAYIPLATNAVRQGRLVGLNLTEDKVKDMGTQSSSGLKLYGRTYVSTGINTALAKANNLKVSEVIIADNYRPEFMLSTDEVLMSLVYDPKTRVILGGALSSMHDVSQSANVLSVCIQNKNTIDDLAMVDMLFQPQFDRPFNYLNILGQAAQAQADKAHK,soluble
7,MKVLDSRDFAKVKAIAIERASYRNIGALAVYIGSMTGMRISEVLALTWPDIDTKLCVIHVTRSWDHLYGTGFKPTKTDSSVRDIEISPSVIELLNKIHQEQAASYLRTGYRDEDQMIMRDPRHNVITDSACNKALHVIQNKAGIPEDKQITFHGLRHSHVSYLISKGVDIYYISKRLGHSDVTITMKVYGHLLDSQRKQEAHKAVLFMDQILEHHHHHH,not soluble
8,MKVPRLIVAGTESGAGKTTITISIILKLLANQMKVKPYKIGPDYIDPQFHRLASGVPSENLDLWMMNDDQIRYLLIEGSREFDISVIEGVMGLFDGAGSDFTGSTYDLARRTGTPIVLVIDGYGISATAAAIVSGIKAYAGELLRGVIVTRVSGESHYRLIRDAVEEKTGVPVLGYMIRNEKAVLESRHLGLVQAYEIDEIREIFGAIDSSTVIDMHQIIDIARSADKLETLYSPEIERLGTFKVSVAMDSAFDFYYEENLRMLKRMGASIRYFSPMGNEVPDADSDLIYLGGGYPEVFAGKLQSATDTIEAIRHAASIGTGVYAECGGYMFLCRSLESTDGHIYGGVGIIPASVYMDASLVIGYREISAKRDTSILRAGETARGHEFHKSRIRFDGPYDHPFVLKSRSSSFEDGFSSGSVTATYAHIHFLSNPRVAENLLIALEHHHHHH,not soluble
9,MKVRADFAFEKVARDWFVRWSKGRSEKYAGQVMRNFERWVFPAIGNLDIRQVRTADVVGCLRVMEARGIVDTLRKTKNSLKMVFAFAVGSGMMEINPVAQIGSGVFERLEHHHHHH,soluble
10,MKVTLPEFERAGVMVVGDVMLDRYWYGPTSRISPEAPVPVVKVNTIEERPGGAANVAMNIASLGANARLVGLTGIDDAARALSKSLADVNVKCDFVSVPTHPTITKLRVLSRNQQLIRLDFEEGFEGVDPQPLHERINQALSSIGALVLSDYAKGALASVQQMIQLARKAGVPVLIDPKGTDFERYRGATLLTPNLSEFEAVVGKCKTEEEIVERGMKLIADYELSALLVTRSEQGMSLLQPGKAPLHMPTQAQEVYDVTGAGDTVIGVLAATLAAGNSLEEACFFANAAAGVVVGKLGTSTVSPIELENAVRGRADTGFGVMTEEELKLAVAAARKRGEKVVMTNGVFDILHAGHVSYLANARKLGDRLIVAVNSDASTKRLKGDSRPVNPLEQRMIVLGALEAVDWVVSFEEDTPQRLIAGILPDLLVKGGDYKPEEIAGSKEVWANGGEVLVLNFEDGCSTTNIIKKIQQDKKG,soluble
11,MKWAYKEENNFEKRRAEGDKIRRKYPDRIPVIVEKAPKSKLHDLDKKKYLVPSDLTVGQFYFLIRKRIQLRPEDALFFFVNNVIPQTMTTMGQLYQDHHEEDLFLYIAYSDESVYGGEVEKKE,not soluble
12,MKYIIIGLGNYGHVLAEELSALGHEIIGADISESRVDSIKDKVATAFVIDATDEQSLSVLPLNSVDIVVVAIGENFGASVRVVALLKQKKVPRIFARAIDAVHKAVLEAFSLEKILTPEEDAARSLVQLLDFGATMEAFRIDQDYYVVKFTVPKKFVGYFVNELNMDEEFHLKLIALKRANKVTNCLGISLMERHVKNELPGDEKVEEGDELVCYGKYRDFQSFWKAILEHHHHHH,soluble
13,MKYLAGIVTFNPNIERLDQNIRAIYPQVSHIYIVDNGSKNKEEISQLVADYNEEGHLTVDYLTENKGIAYALNCIGQFAVAQEFDWFLTLDQDSVVLGDLIDNYENYLHLPKVGMLSCLYQDMNRENLVMQEFDYKEIEECITSAALMKTSVFEETSGFAEEMFIDFVDSEMNYRLSEMGYKTYQVNFIGLLHEIGHSSRVKKFGHVFHVLNHSPFRKYYMIRNAIYIIKKYGKKKRYKYLVFMRNEFVRVLVAEEQKSKKIVAMIKGLKDGLLMKVDKYGKLEHHHHHH,soluble
14,MKYRDLRDFLAQLERQGELKRITAPVSTRLEMTEIADRVLRAGGPALLFENARHNDAPADMPVLANLFGTPRRVAWGMGADDVGALRETGELLASLREPEAPKGLRDALAKVSMLKAALWDMSPKTVRSAACQEIVWEGADVDLGRLPIQTCWPGDVAPLLAWGLVITRGPNARRQNLGIYRQQPLGPNKLIMRWLSHRGGALDFRDHAQAHPGKPFPIAVALGADPATILGAVTPVPDTLSEYQFAGLLRGSRTEVVKALGSDLSVPASAEIVLEGHLLPADDPRAVAAAVPEGANPPPATGYEMALEGPYGDHTGYYNEQDWFPVFTVDRITMRRNPIYHSTYTGKPPDEPAVLGVALNEVFVPLLRRQLPEIVDFYLPPEGCSYRLAVVSIRKQYAGHAKRVMFGLWSVLRQFMYTKFIVVVDEDIDPRDWTEVVWAMTTRMDPVRDTVLVENTPIDYLDFASPVSGLGGKMGLDATNKWPGETSREWGTPIHMDEAVKRRVDAMWDTLGLAAALEHHHHHH,not soluble
15,MKYTEIMVRYGELSTKGKNRKTFIMQLAQNVKRALADFPALKIHADRDRMHILLNGEDSEEVIPKLSKVFGIQNFSPSIRIEKEMPAIRAMVQEVVREVYTPGKTFKITAKRSDHSFELDSNGLNQELGGAVIEAIPEIQVQMKKPDINLRIEIRKDAAYLSYETIRGAGGLPVGTSGRGMLMLSGGIDSPVAGYLAMKRGVEVEAVHFASPPYTSEQALQKAKDLAEKLVPYVGTIQFIEVPFTEIQEEIKRVVPQGYLMTITRRLMLRLTDAIREMRKGLVIINGESLAQVASQTLQSMVAINEVTSTPIIRPVVSMDKTEIIEIAEKIDTFELAIQPFEDCCTIFAPPQPKTRPRLDKAQEYEARLDLEGLMARALEGLKITEISAETAKDKQEDEFADFL,not soluble
16,MKYVLDTSAIISRNINLLDGDLLFPSSVIGEIRKGKLKYMLDALFPMIRIVDPDQYYVRSVEDAAHKTGDLMNLSGTDIEVIAVAMQYGATIVTDDYSIQNVASALKIAFMNANIKSISKQISWVYRCTGCKKIFHEPVKVCDICGHNVKRHYDKKRSAVKKILEHHHHHH,not soluble
17,MLAFFRRFMSTTTVTAQPVLPWFRNVPLAPADPILGVTEAFKKDTNPNKINLGVGAYRDDQGKPFVLRAVREAEQQIIDAKMDKEYSTITGVPEFAPLAAKLAFGDNSEVIRDGRVFTTQSISGTGALRIGGQFVEKFIPSKTLFYPTPTWANHLPVFRNSGLSIQPYRYYNQETLGFDVEGALEDISKMPEGSVILLHACAHNPTGVDPTKEQWKKLSQVLKERKILPFFDMAYQGFASGDVDDDAFALRHFIEQGHNVLVAQSFAKNMGLYGERVGAFSIVCDSAEEAIRVGSQMRIIIRPMISMPPLHGARIASRILSNPELKKSWLEDVKLMADRIKSMRTALKDGLKAEGSTLNWDHITNQIGMFCFTGINEKQVQKLIKEHSVYLTNDGRISISGINTGNVAYLAKALHDVTK,not soluble
18,MLARVCERTPISTPAWTDTLTRLAPDASSVLARGPWTWKYALPPAVVGVAALAASSPWGVVGVALAAFVVWFHRDPDRSPNGAGVVVPADGTVSVIRTRDDGRVRVGVFMNVHNVHVNRVPVAGRVESVVHEPGGHRPAFSKESAHNERVRIETAEWTVVLIAGAFARRIHPYVEAGEDLARGDRLGHISFGSRADVVLPPAYDRGDVVVESGQTVRAGETVLARLEHHHHHH,soluble

# From the DeepSol protein solubility set
